Sequences and labels used below:
B1: Bs YisK (Bacillus subtilis subsp. subtilis str. 168) (protein)
chain: MKFATGELYNRMFVGLIIDDEKIMDLQKAEKKLFELETIPGSLIECIAEGDKFVAHARQLAEWAKKPNDELGSFMYSLSEVKLHAPIPKPSKNIICIGKNYRDHAIEMGSEADIPEHPMVFTKSPVTVTGHGDIVKSHEEVTSQLDYEGELAVVIGKSGTRISKEDAYDHVFGYTIVNDITARDLQKRHKQFFIGKSLDTTCPMGPVLVHKSSIQEPERLKVETRVNGELRQSGSASDMIFSIPELIETLSKGMTLEAGDIIATGTPSGVGKGFTPPKFLRSGDKIDITIDPIGTLSNQIG
B2: Bt FAHD2A (Bos taurus) (protein)
chain: ATQLPVLPRSEVTFLAPVTRPDKVVCVGMNYADHCREQNVPVPKEPIIFSKFASAIVGPYDNIILPPESQEVDWEVELAVVIGKRGKYIKATDAMAHVAGFTVAHDVSARDWQMGRNGKQWLLGKTFDTFCPLGPALVTKDSVADPHNLKICCRVNGEVMQSSNTNQMVFKTEELITWVSQFVTLYPGDIILTGTPPGVGVFRKPPVFLKKGDEVQCEIEELGVIINKVV
B3: Hs FAHD1 (Homo sapiens) (protein)
chain: MGIMAASRPLSRFWEWGKNIVCVGRNYADHVREMRSAVLSEPVLFLKPSTAYAPEGSPILMPAYTRNLHHELELGVVMGKRCRAVPEAAAMDYVGGYALCLDMTARDVQDECKKKGLPWTLAKSFTASCPVSAFVPKEKIPDPHKLKLWLKVNGELRQEGETSSMIFSIPYIISYVSKIITLEEGDIILTGTPKGVGPVKENDEIEAGIHGLVSMTFKVEKPEY
B4: Sc FMP41 (Saccharomyces cerevisiae S288C) (protein)
chain: MSYNYLKAARKIICIGRNYAAHIKELNNSTPKQPFFFLKPTSSIVTPLSSSLVKTTRPANSTFNGLNEDGTNPGPIFIPRGVKVHHEIELALIVSKHLSNVTKMKPEEVYDSISGVALALDLTARNVQDEAKKKGLPWTISKGFDTFMPISAIVSREKFSSYKSNLQDIFRVKCSVNGQLRQDGGTNLMLHPLHKILQHISTMISLEPGDIILTGTPAGVGELKPGDRVHCELLQNNDNIVDMNFECENRPGPYEFRET
B5: Hs FAHD2A (Homo sapiens) (protein)
chain: AAQLPVLPRSEVTFLAPVTRPDKVVCVGMNYVDHCKEQNVPVPKEPIIFSKFASSIVGPYDEVVLPPQSQEVDWEVELAVVIGKKGKHIKATDAMAHVAGFTVAHDVSARDWQMRRNGKQWLLGKTFDTFCPLGPALVTKDSVADPHNLKICCRVNGEVVQSGNTNQMVFKTEDLIAWVSQFVTFYPGDVILTGTPPGVGVFRKPPVFLKKGDEVQCEIEELGVIINKVV
B6: Hs FAHD2B (Homo sapiens) (protein)
chain: AAQLPVLPWSEVTFLAPVTWPDKVVCVGMNYVDHCKEQNVPVPKEPIIFSKFASSIVGPYDEVVLPPQSQEVDWEVELAVVIGKKGKHIKATDAMAHVAGFTVAHDVSARDWLTRRNGKQWLLGKTFDTFCPLGPALVTKDSVADPHNLKICCRVNGEVVQSSNTNQMVFKTEDLIAWVSQFVTFYPGDVILTGTPPGVGVFRKPPVFLKKGDEVQCEIEELGVIINKVV
B7: Ec YcgM (Escherichia coli K-12) (protein)
chain: MYQHHNWQGALLDYPVSKVVCVGSNYAKHIKEMGSAVPEEPVLFIKPETALCDLRQPLAIPSDFGSVHHEVELAVLIGATLRQATEEHVRKAIAGYGVALDLTLRDVQGKMKKAGQPWEKAKAFDNSCPLSGFIPAAEFTGDPQNTTLSLSVNGEQRQQGTTADMIHKIVPLIAYMSKFFTLKAGDVVLTGTPDGVGPLQSGDELTVTFDGHSLTTRVL

Consider 8 molecules from article PMC10825186, “A universal metabolite repair enzyme removes a strong inhibitor of the TCA cycle” (Nature Communications, 2024).

T1 sequence (P31039 44-665): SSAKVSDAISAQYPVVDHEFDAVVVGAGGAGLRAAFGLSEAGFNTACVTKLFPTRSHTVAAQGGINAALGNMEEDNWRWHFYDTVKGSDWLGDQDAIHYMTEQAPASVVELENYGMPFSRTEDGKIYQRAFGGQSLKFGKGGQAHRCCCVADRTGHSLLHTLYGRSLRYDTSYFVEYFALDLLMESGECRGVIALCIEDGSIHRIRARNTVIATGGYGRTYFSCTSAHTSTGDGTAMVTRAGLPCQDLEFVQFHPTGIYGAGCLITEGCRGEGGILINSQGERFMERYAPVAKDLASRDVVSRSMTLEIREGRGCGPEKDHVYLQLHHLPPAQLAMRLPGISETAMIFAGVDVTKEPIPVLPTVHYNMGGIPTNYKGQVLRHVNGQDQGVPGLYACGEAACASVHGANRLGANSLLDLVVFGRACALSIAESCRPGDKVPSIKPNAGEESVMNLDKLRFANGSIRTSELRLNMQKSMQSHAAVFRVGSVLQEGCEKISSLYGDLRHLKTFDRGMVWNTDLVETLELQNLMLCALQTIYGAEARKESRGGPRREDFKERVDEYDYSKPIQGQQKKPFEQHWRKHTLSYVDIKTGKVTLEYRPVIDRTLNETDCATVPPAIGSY
T1 sequence (Q3T189 29-280 partner): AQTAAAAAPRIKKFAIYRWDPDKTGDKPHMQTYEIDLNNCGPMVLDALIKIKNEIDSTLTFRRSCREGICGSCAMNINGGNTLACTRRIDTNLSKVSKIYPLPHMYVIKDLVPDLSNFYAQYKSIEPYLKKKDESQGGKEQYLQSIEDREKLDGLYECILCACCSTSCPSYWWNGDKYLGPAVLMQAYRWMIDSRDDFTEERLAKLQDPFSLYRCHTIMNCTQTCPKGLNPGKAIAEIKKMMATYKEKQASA
T1 sequence (P35720 30-169 partner): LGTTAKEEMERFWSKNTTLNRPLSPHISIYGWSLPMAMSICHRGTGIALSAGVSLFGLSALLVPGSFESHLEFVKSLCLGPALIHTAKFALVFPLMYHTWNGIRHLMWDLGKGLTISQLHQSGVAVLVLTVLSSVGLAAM
T1 sequence (Q95123 56-158 partner): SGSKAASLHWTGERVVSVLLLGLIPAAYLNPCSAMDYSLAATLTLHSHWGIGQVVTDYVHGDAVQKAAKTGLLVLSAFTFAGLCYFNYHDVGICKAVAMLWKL

One series has as its target T1, bovine succinate dehydrogenase (SDH) (Bos taurus, UniProt P31039).
T1 construct: gene SDHA; native complex II, dodecyl-maltoside-solubilized and enriched from bovine heart submitochondrial particles; with Succinate dehydrogenase [ubiquinone] iron-sulfur subunit, mitochondrial; Succinate dehydrogenase cytochrome b560 subunit, mitochondrial; Succinate dehydrogenase [ubiquinone] cytochrome b small subunit, mitochondrial
The series can be described thus: DCIP reduction at […] nm. The following applies: 2 mM malate, 0.1 mM decylubiquinone, GOT and glutamate, pH 7.1, 22 °C; product enol-OAA. The format is biochemical.
With `O=C(O)C[C@H](O)C(=O)O` [malate], the “DCIP reduction at 600 nm” value is reported as “These results confirm that malate oxidation by SDH forms enol-OAA”.

Substrate in another series: O=C(O)C=C(O)C(=O)O
Kind of series: purified protein. The settings on record: pH 7.5, 22 °C, 10 mM potassium phosphate, 0.3 mM NADH, malate dehydrogenase, OAA added in dry acetone.
The term Km denotes the concentration of substrate that gives half-maximal velocity. The Vmax is the rate approached at saturating substrate. For orientation: kcat means the number of substrate molecules converted per active site and unit of time at saturation. By kcat/Km is commonly meant the second-order rate constant that governs catalysis at low substrate concentration. B1: the Km amounted to 43.8 ± 8.1 µM, the Vmax was 402 µmol/min/mg, the kcat came to 237 s⁻¹ and the kcat/Km was 5.81e+06 M⁻¹ s⁻¹.
The matching figures for B2: 20.2 ± 1.4 µM, 53.5 µmol/min/mg, 32.7 s⁻¹ and 1.63e+06 M⁻¹ s⁻¹.
The matching figures for B3: 15.8 ± 5.9 µM, 69 µmol/min/mg, 31.1 s⁻¹ and 1.99e+06 M⁻¹ s⁻¹.
Consider B4, for which the Km stood at 219 ± 23 µM, the Vmax amounted to 717 µmol/min/mg, the kcat was found to be 369 s⁻¹ and the kcat/Km is 1.75e+06 M⁻¹ s⁻¹.
The like results for B5 were, in that order, 22.2 ± 3.6 µM, 22.2 µmol/min/mg, 13.6 s⁻¹ and 628000 M⁻¹ s⁻¹.
As to B6, the Km was found to be 296 ± 12 µM, the Vmax was found to be 112 µmol/min/mg, the kcat stood at 68.7 s⁻¹ and the kcat/Km stood at 232000 M⁻¹ s⁻¹.
The like results for B7 were, in that order, 26.9 ± 0.4 µM, 372 µmol/min/mg, 161 s⁻¹ and 5.95e+06 M⁻¹ s⁻¹.
